Broadly, the Kd is the constant that tells how readily two partners part at equilibrium.

For assay [1], the target named is XoxF from Methylomicrobium buryatense 5GB1C (Methylomicrobium buryatense 5GB1C). Briefly: BLI. Background: BLI is a label-free optical method that tracks binding on a fibre tip over time.
In a further assay the target is T1, 5G-XoxF (Methylotuvimicrobium buryatense, UniProt A0A3F2YLY8).
T1 sequence (A0A3F2YLY8 27-617): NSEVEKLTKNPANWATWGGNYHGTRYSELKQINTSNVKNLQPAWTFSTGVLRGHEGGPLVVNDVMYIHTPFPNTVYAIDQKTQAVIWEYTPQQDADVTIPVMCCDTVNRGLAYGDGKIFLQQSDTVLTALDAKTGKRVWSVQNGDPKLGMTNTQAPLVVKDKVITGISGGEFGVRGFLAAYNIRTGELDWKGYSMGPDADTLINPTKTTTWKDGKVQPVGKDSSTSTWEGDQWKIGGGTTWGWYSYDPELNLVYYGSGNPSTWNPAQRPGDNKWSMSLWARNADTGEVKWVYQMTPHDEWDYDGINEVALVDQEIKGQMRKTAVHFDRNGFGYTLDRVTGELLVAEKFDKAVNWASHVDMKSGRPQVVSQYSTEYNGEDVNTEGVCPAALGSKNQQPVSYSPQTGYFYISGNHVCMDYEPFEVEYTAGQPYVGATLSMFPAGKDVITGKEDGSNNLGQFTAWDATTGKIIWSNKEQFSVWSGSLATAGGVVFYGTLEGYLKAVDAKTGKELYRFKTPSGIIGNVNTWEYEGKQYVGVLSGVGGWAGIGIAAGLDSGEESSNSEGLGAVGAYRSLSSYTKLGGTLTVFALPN
The assay can be described thus: DCPIP dye-linked dehydrogenase assay, A600. Conditions: PMS mediator, DCPIP acceptor; La(III) enzyme; 30 °C; 1.5 μM enzyme. The class given is biochemical.

“particulate methane monooxygenase from Methylomicrobium buryatense 5GB1C (complex)” had a Kd in assay [1] of 50 µM. `CO` [methanol]: the specific activity entry on 5G-XoxF is “Purified 5G-XoxF exhibits methanol oxidation activity”.

The record behind these values is publication PMC6370294 (Journal of biological inorganic chemistry : JBIC : a …, 2018).
